B1: Shewanella oneidensis FadR protein (natural protein, Shewanella oneidensis MR-1, UniProt Q8ED80 1-240, looked up)
chain: MIINAKGPASFAEKYIVRSIWENKFPPGSILPAERELSELIGVTRTTLREVLQRLARDGWLKIQHGKPTRVNNFWETSGLNILETIADLNPEGFPVLVDQLLSARTNVSAIYFRGALRNNPDTAMEVLAQIHQLEDTAESFAEYDYLLHHTLAFSSGNPLYVLILNGFKGLYSRVGRYYFSSSEARQLALNFYKELELLAKAKNYLDVPALMRTYGINSGKMWLQLRDDMPSSIAQQDSH
B2: fabA_she probe, biotinylated (dsDNA)
DNA 1: GACATTAATTAGCTGATCGGAGTTGTTTAGCTTACACGTGTTCGCTAATCTTGGCG
DNA 2: CGCCAAGATTAGCGAACACGTGTAAGCTAAACAACTCCGATCAGCTAATTAATGTC
B3: fabA_ec probe (dsDNA)
DNA 1: TTTATTCCGAACTGATCGGACTTGTTCAGCGTACACGTGTTAGCTATCCTGCGTGC
DNA 2: GCACGCAGGATAGCTAACACGTGTACGCTGAACAAGTCCGATCAGTTCGGAATAAA
B4: fabA_she probe (dsDNA)
DNA 1: B2 DNA 1
DNA 2: B2 DNA 2
B5: fabB_ec probe (dsDNA)
DNA 1: TCTATTAAATGGCTGATCGGACTTGTTCGGCGTACAAGTGTACGCTATTGTGCATTC
DNA 2: GAATGCACAATAGCGTACACTTGTACGCCGAACAAGTCCGATCAGCCATTTAATAGA

Legend:
[1] = target: the molecule itself; assay: SEC; Superdex 75 column on an Akta FPLC, 0.35 mL/min, 20 mmol/L Tris-HCl, 50 mmol/L NaCl, pH 7.9; peak at 10.5 mL, between the 44 kDa and 67 kDa standards
[2] = target: T1, FadR_she (Shewanella oneidensis, UniProt Q8ED80 1-240); assay: SPR; 2:1 (FadR dimer per DNA); EMSA: Roche binding buffer, 20 min, room temperature, 0.2 pmol DIG probe (10 uL in Fig. 6), 7% native PAGE; SPR: Biacore3000, 20 mM Tris-HCl pH 7.5, 200 mM NaCl
[3] = target: T2, FadR_ec (Escherichia coli (K-12), UniProt P0A8V6 1-239); assay: EMSA; 5 pmol protein, 0.2 pmol probe; EMSA: Roche binding buffer, 20 min, room temperature, 0.2 pmol DIG probe (10 uL in Fig. 6), 7% native PAGE; SPR: Biacore3000, 20 mM Tris-HCl pH 7.5, 200 mM NaCl
[4] = target: T1, FadR_she; assay: as above
[5] = target: FadR_vc (Vibrio cholerae, UniProt Q9KQU8 1-279); assay: EMSA; 5 pmol protein; super-shifted band attributed to multimer; EMSA: Roche binding buffer, 20 min, room temperature, 0.2 pmol DIG probe (10 uL in Fig. 6), 7% native PAGE; SPR: Biacore3000, 20 mM Tris-HCl pH 7.5, 200 mM NaCl
[6] = target: T2, FadR_ec; assay: EMSA; C10:0-CoA ~50 pmol; EMSA: Roche binding buffer, 20 min, room temperature, 0.2 pmol DIG probe (10 uL in Fig. 6), 7% native PAGE; SPR: Biacore3000, 20 mM Tris-HCl pH 7.5, 200 mM NaCl

T2 sequence (P0A8V6 whole entry): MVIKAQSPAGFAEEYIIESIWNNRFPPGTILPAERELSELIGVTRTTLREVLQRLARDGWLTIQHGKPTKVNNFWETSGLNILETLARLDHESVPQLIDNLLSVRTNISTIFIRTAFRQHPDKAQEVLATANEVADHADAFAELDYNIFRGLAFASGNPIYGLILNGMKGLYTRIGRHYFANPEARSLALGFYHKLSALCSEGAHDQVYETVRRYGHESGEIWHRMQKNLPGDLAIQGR
FadR_vc, sequence (Q9KQU8 whole entry): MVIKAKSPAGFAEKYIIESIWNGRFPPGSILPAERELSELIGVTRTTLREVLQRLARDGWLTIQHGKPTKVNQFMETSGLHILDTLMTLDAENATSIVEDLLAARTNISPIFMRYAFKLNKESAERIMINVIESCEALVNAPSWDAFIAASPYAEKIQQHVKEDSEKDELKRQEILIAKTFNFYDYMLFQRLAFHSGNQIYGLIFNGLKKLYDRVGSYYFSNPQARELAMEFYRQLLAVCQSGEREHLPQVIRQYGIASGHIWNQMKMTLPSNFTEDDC

Binder | binding result [3] | binding result [4] | binding result [5] | other results
B1 | – | – | – | stoichiometry N [1]: 2
B2 | – | – | – | Kd [2]: ~436 nM
B3 | binds | binds | binds | –
B4 | – | – | – | binding result [6]: binds
B5 | binds | binds | binds | –

Source: publication PMC4537474 (Protein & Cell, 2015)
